The values below come from the supplement of paper PMC9112550, “Optimization of the antimicrobial peptide Bac7 by deep mutational scanning” (BMC Biology, 2022).

The series deals with Escherichia coli TOP10. Nature of the series: shrunken log2 fold change of peptide-encoding DNA abundance (4.5 h post-induction vs induction); higher = less antimicrobial activity (less host growth inhibition). The note with it: time post-induction: 4.5 h; library: site-saturation at positions 5, 18, 19, 20.
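Note: peptides expressed intracellularly from a pBAD plasmid library in pooled LB shake-flask culture, induced with 0.3% L-arabinose, DNA abundance read by NGS, three biological replicates, DESeq2 with apeglm shrinkage.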

For RRIRPRPPRLPRPRPRPNYRPRP, the “shrunken log2 fold change” value is -0.451. On to RRIRTRPPRLPRPRPRPLHNPRP, for which the “shrunken log2 fold change” value was -0.557. As to RRIRARPPRLPRPRPRPLPLPRP, the “shrunken log2 fold change” value was 0.186. RRIRMRPPRLPRPRPRPDYWPRP: the “shrunken log2 fold change” value is 0.441.

With RRIRSRPPRLPRPRPRPQAVPRP, the “shrunken log2 fold change” value came to 0.197. The same measure for RRIRMRPPRLPRPRPRPPLAPRP: 1.48. As to RRIRRRPPRLPRPRPRPPLWPRP, the “shrunken log2 fold change” value turned out to be 0.883. The same measure for RRIRERPPRLPRPRPRPCFQPRP: -0.25; for RRIRIRPPRLPRPRPRPQHAPRP: 0.16; for RRIRLRPPRLPRPRPRPRRPPRP: 0.39. As to RRIRTRPPRLPRPRPRPANEPRP, the “shrunken log2 fold change” value is -0.226. In the case of RRIRYRPPRLPRPRPRPFYGPRP, the “shrunken log2 fold change” value was found to be 0.0392. The same measure for RRIRQRPPRLPRPRPRPSSEPRP: 0.0507; for RRIRVRPPRLPRPRPRPGQMPRP: -0.0386; for RRIRERPPRLPRPRPRPHLKPRP: -0.268. Consider RRIRLRPPRLPRPRPRPPRVPRP, for which the “shrunken log2 fold change” value was 0.536.

Turning to RRIRGRPPRLPRPRPRPGIKPRP, the “shrunken log2 fold change” value stood at 0.429. RRIRRRPPRLPRPRPRPLIQPRP: the “shrunken log2 fold change” value came to 0.256. With RRIRCRPPRLPRPRPRPAGKPRP, the “shrunken log2 fold change” value is 0.0831.

Consider RRIRERPPRLPRPRPRPYQSPRP, for which the “shrunken log2 fold change” value is -0.0109. With RRIRNRPPRLPRPRPRPNNWPRP, the “shrunken log2 fold change” value was -0.0773. Consider RRIRGRPPRLPRPRPRPRMEPRP, for which the “shrunken log2 fold change” value came to 0.483. As to RRIRIRPPRLPRPRPRPYVHPRP, the “shrunken log2 fold change” value is -0.189. Regarding RRIRKRPPRLPRPRPRPWHQPRP, the “shrunken log2 fold change” value is -0.0165. With RRIRKRPPRLPRPRPRPSSKPRP, the “shrunken log2 fold change” value was -0.181. Regarding RRIRYRPPRLPRPRPRPGEGPRP, the “shrunken log2 fold change” value amounted to 0.00405. RRIRLRPPRLPRPRPRPHIDPRP: the “shrunken log2 fold change” value is -0.135. Consider RRIRPRPPRLPRPRPRPCLKPRP, for which the “shrunken log2 fold change” value was -0.0625. For RRIRYRPPRLPRPRPRPPDEPRP, the “shrunken log2 fold change” value amounted to 0.0398. On to RRIRLRPPRLPRPRPRPHVGPRP, for which the “shrunken log2 fold change” value is -0.442.

As for RRIRIRPPRLPRPRPRPLQSPRP, the “shrunken log2 fold change” value was -0.0353. Regarding RRIRTRPPRLPRPRPRPFNTPRP, the “shrunken log2 fold change” value is -0.0686. Then RRIRTRPPRLPRPRPRPNRDPRP, with -0.0614. RRIRLRPPRLPRPRPRPMPAPRP: the “shrunken log2 fold change” value came out at 0.221. Turning to RRIRTRPPRLPRPRPRPGLVPRP, the “shrunken log2 fold change” value turned out to be 0.0962. Consider RRIRHRPPRLPRPRPRPPNQPRP, for which the “shrunken log2 fold change” value is -0.0151. With RRIRWRPPRLPRPRPRPITVPRP, the “shrunken log2 fold change” value is -0.0559. For RRIRVRPPRLPRPRPRPCYHPRP, the “shrunken log2 fold change” value is -0.00421. The same measure for RRIRYRPPRLPRPRPRPNDCPRP: -1.04; for RRIRHRPPRLPRPRPRPQYDPRP: -1.12; for RRIRDRPPRLPRPRPRPQVEPRP: 0.0699.

RRIRTRPPRLPRPRPRPSHKPRP: the “shrunken log2 fold change” value was -0.421. For RRIRSRPPRLPRPRPRPNTFPRP, the “shrunken log2 fold change” value is -0.0296.

Regarding RRIRSRPPRLPRPRPRPITWPRP, the “shrunken log2 fold change” value was -0.284.

Turning to RRIRRRPPRLPRPRPRPWRTPRP, the “shrunken log2 fold change” value is -0.0112. RRIRCRPPRLPRPRPRPGQMPRP: the “shrunken log2 fold change” value was -0.147.

For the sequence RRIRRRPPRLPRPRPRPKNQPRP, the “shrunken log2 fold change” value was determined as 0.173. With RRIRVRPPRLPRPRPRPRSSPRP, the “shrunken log2 fold change” value is -0.244. Consider RRIRHRPPRLPRPRPRPWLDPRP, for which the “shrunken log2 fold change” value was -0.377. As to RRIRSRPPRLPRPRPRPKRGPRP, the “shrunken log2 fold change” value stood at 0.0665. The same measure for RRIRIRPPRLPRPRPRPDYWPRP: -0.195; for RRIRARPPRLPRPRPRPWCWPRP: 0.583. As for RRIRCRPPRLPRPRPRPAYRPRP, the “shrunken log2 fold change” value is -0.194.

RRIRVRPPRLPRPRPRPPCYPRP: the “shrunken log2 fold change” value was -0.356. In the case of RRIRARPPRLPRPRPRPVDGPRP, the “shrunken log2 fold change” value was found to be 0.381. As for RRIRIRPPRLPRPRPRPHKFPRP, the “shrunken log2 fold change” value was -0.291. The same measure for RRIRVRPPRLPRPRPRPWLPPRP: -0.59.

RRIRYRPPRLPRPRPRPFTAPRP: the “shrunken log2 fold change” value was -0.311. Turning to RRIRWRPPRLPRPRPRPTPSPRP, the “shrunken log2 fold change” value stood at 0.564. With RRIRSRPPRLPRPRPRPIPGPRP, the “shrunken log2 fold change” value is -0.0336. In the case of RRIRIRPPRLPRPRPRPNEVPRP, the “shrunken log2 fold change” value was -0.346.

Regarding RRIRNRPPRLPRPRPRPNLMPRP, the “shrunken log2 fold change” value was -0.733. Then RRIRYRPPRLPRPRPRPKFVPRP, with -0.416.

On to RRIRFRPPRLPRPRPRPHRIPRP, for which the “shrunken log2 fold change” value is -0.526. As to RRIRPRPPRLPRPRPRPYIEPRP, the “shrunken log2 fold change” value was -0.322. With RRIRDRPPRLPRPRPRPSSYPRP, the “shrunken log2 fold change” value was -0.738. In the case of RRIRKRPPRLPRPRPRPINHPRP, the “shrunken log2 fold change” value was -0.408. Then RRIRMRPPRLPRPRPRPTREPRP, with 0.947; and RRIRRRPPRLPRPRPRPYTFPRP, with -0.0103; and RRIRPRPPRLPRPRPRPSEKPRP, with -0.0945. With RRIRVRPPRLPRPRPRPIATPRP, the “shrunken log2 fold change” value amounted to 0.141. As for RRIRWRPPRLPRPRPRPANQPRP, the “shrunken log2 fold change” value came to 0.559. The same measure for RRIRQRPPRLPRPRPRPTACPRP: 0.0488; for RRIRSRPPRLPRPRPRPLVAPRP: 0.27; for RRIRARPPRLPRPRPRPYDRPRP: -0.01. For RRIRARPPRLPRPRPRPMIFPRP, the “shrunken log2 fold change” value was found to be 0.292. Consider RRIRKRPPRLPRPRPRPDEAPRP, for which the “shrunken log2 fold change” value is 3.09. As for RRIRDRPPRLPRPRPRPDYAPRP, the “shrunken log2 fold change” value was 0.016. On to RRIRARPPRLPRPRPRPLEFPRP, for which the “shrunken log2 fold change” value was found to be 0.231. For the sequence RRIRCRPPRLPRPRPRPGLHPRP, the “shrunken log2 fold change” value was -0.131. Then RRIRARPPRLPRPRPRPHSIPRP, with -0.344; and RRIRPRPPRLPRPRPRPLGWPRP, with 0.442. For the sequence RRIRYRPPRLPRPRPRPIKHPRP, the “shrunken log2 fold change” value was -0.693. With RRIRHRPPRLPRPRPRPYGYPRP, the “shrunken log2 fold change” value is -0.22.

As for RRIRIRPPRLPRPRPRPQPPPRP, the “shrunken log2 fold change” value is -0.0122. As for RRIRSRPPRLPRPRPRPYLGPRP, the “shrunken log2 fold change” value was -0.204. The same measure for RRIRSRPPRLPRPRPRPSQWPRP: -0.176; for RRIRHRPPRLPRPRPRPLPQPRP: 0.348; for RRIRARPPRLPRPRPRPVFTPRP: -0.0343. Then RRIRIRPPRLPRPRPRPQRMPRP, with -0.387. With RRIRSRPPRLPRPRPRPKEAPRP, the “shrunken log2 fold change” value is -0.144.

Regarding RRIRERPPRLPRPRPRPFAQPRP, the “shrunken log2 fold change” value was -0.145. Regarding RRIRIRPPRLPRPRPRPGCEPRP, the “shrunken log2 fold change” value is -0.0688. For the sequence RRIRSRPPRLPRPRPRPEYCPRP, the “shrunken log2 fold change” value was found to be 0.184. Consider RRIRVRPPRLPRPRPRPGSMPRP, for which the “shrunken log2 fold change” value was -0.00131. The same measure for RRIRQRPPRLPRPRPRPRYFPRP: -0.247; for RRIRERPPRLPRPRPRPVLKPRP: 0.0458. Take RRIRCRPPRLPRPRPRPESIPRP: the “shrunken log2 fold change” value was -0.263. For RRIRWRPPRLPRPRPRPRYPPRP, the “shrunken log2 fold change” value worked out at 0.175. RRIRNRPPRLPRPRPRPAYFPRP: the “shrunken log2 fold change” value is -0.175. The same measure for RRIRGRPPRLPRPRPRPDMSPRP: 0.0457; for RRIRCRPPRLPRPRPRPWNVPRP: -0.476.

As to RRIRKRPPRLPRPRPRPQLPPRP, the “shrunken log2 fold change” value was -0.105. For the sequence RRIRARPPRLPRPRPRPFESPRP, the “shrunken log2 fold change” value was 0.0991.

Regarding RRIRLRPPRLPRPRPRPWFMPRP, the “shrunken log2 fold change” value was -0.0837.

On to RRIRVRPPRLPRPRPRPVYVPRP, for which the “shrunken log2 fold change” value is -0.0177. For RRIRHRPPRLPRPRPRPKIIPRP, the “shrunken log2 fold change” value was -1.08. Regarding RRIRTRPPRLPRPRPRPWWDPRP, the “shrunken log2 fold change” value was determined as 0.132.

On to RRIRFRPPRLPRPRPRPMFLPRP, for which the “shrunken log2 fold change” value is -0.712. The same measure for RRIRARPPRLPRPRPRPEMNPRP: 0.655; for RRIRLRPPRLPRPRPRPKYDPRP: -0.0843; for RRIRFRPPRLPRPRPRPMKQPRP: -0.0442. For the sequence RRIRYRPPRLPRPRPRPETGPRP, the “shrunken log2 fold change” value was -0.0691. In the case of RRIRLRPPRLPRPRPRPLQAPRP, the “shrunken log2 fold change” value stood at 0.128. In the case of RRIRIRPPRLPRPRPRPWQTPRP, the “shrunken log2 fold change” value was 0.0238. Regarding RRIRYRPPRLPRPRPRPRTSPRP, the “shrunken log2 fold change” value was -0.169. Turning to RRIRPRPPRLPRPRPRPRSEPRP, the “shrunken log2 fold change” value was determined as 0.564. The same measure for RRIRIRPPRLPRPRPRPDCAPRP: -0.0601; for RRIRQRPPRLPRPRPRPPRDPRP: 1.25. Then RRIRIRPPRLPRPRPRPAPFPRP, with 0.271.

RRIRYRPPRLPRPRPRPDQDPRP: the “shrunken log2 fold change” value is -0.0701. As to RRIRARPPRLPRPRPRPTRSPRP, the “shrunken log2 fold change” value amounted to 0.258. Then RRIRSRPPRLPRPRPRPCMMPRP, with 0.0683; and RRIRMRPPRLPRPRPRPKLRPRP, with -0.0111; and RRIRTRPPRLPRPRPRPWPFPRP, with -0.0102.
